Experimental data published in patent publication US20260015405A1 (TRANSGENE, published 2026).
Substitutions are numbered along the chain they refer to.

B1: construct encoded by pTG19966: [N-terminus]-[coiled-coil neck domain]-[CD40L] (ligand)
chain: AEMKTYSHRTMPSACTLVMCSSVESDVASLRQQVEALQGQVQHLQAAFSQYKKVENPQIAAHVISEASSKTTSVLQWAEKGYYTMSNNLVTLENGKQLTVKRQGLYYIYAQVTFCSNREASSQAPFIASLCLKSPGRFERILLRAANTHSSAKPCGQQSIHLGGVFELQPGASVFVNVTDPSQVSHGTGFTSFGLLKL
notes: Tested as clarified HeLa supernatant, oligomeric state mixed; It was detected by anti-FLAG immunoblot
B2: construct encoded by pTG20042: [N-terminus]-[collagen domain(30)]-[coiled-coil neck domain]-[CD40L] (ligand)
chain: AEMKTYSHRTMPSACTLVMCSSVESGLPGRDGRDGREGPRGEKGDPGLPGAAGQAGMPGQAGPVGPKGDNGSVGEPGPKGDTGPSGPPGPPGVPGPAGREGPLGKQGNIGPQGKPDVASLRQQVEALQGQVQHLQAAFSQYKKVENPQIAAHVISEASSKTTSVLQWAEKGYYTMSNNLVTLENGKQLTVKRQGLYYIYAQVTFCSNREASSQAPFIASLCLKSPGRFERILLRAANTHSSAKPCGQQSIHLGGVFELQPGASVFVNVTDPSQVSHGTGFTSFGLLKL
notes: Tested as clarified HeLa supernatant
B3: construct encoded by pTG20038: [N-terminus]-[collagen domain(6 + N-Gly)]-[coiled-coil neck domain]-[CD40L] (ligand)
chain: AEMKTYSHRTMPSACTLVMCSSVESGQAGPVGPKGDNGSVGEPDVASLRQQVEALQGQVQHLQAAFSQYKKVENPQIAAHVISEASSKTTSVLQWAEKGYYTMSNNLVTLENGKQLTVKRQGLYYIYAQVTFCSNREASSQAPFIASLCLKSPGRFERILLRAANTHSSAKPCGQQSIHLGGVFELQPGASVFVNVTDPSQVSHGTGFTSFGLLKL
notes: as for B2
B4: construct encoded by pTG20039: [N-terminus]-[collagen domain(6 - N-Gly)]-[coiled-coil neck domain]-[CD40L] (ligand)
chain: B3 chain with Q27P, A28K, P30D, V31T, K34S, D36P, N37P, S39P, V40P, E42V
notes: as for B2
B5: construct encoded by pTG19969: [N-terminus]-[collagen domain(12)]-[coiled-coil neck domain]-[linker]-[CD40L] (ligand)
chain: AEMKTYSHRTMPSACTLVMCSSVESGQAGPVGPKGDNGSVGEPGPKGDTGPSGPPGPPGVPDVASLRQQVEALQGQVQHLQAAFSQYKKVEGGGSGGGSGGGSNPQIAAHVISEASSKTTSVLQWAEKGYYTMSNNLVTLENGKQLTVKRQGLYYIYAQVTFCSNREASSQAPFIASLCLKSPGRFERILLRAANTHSSAKPCGQQSIHLGGVFELQPGASVFVNVTDPSQVSHGTGFTSFGLLKL
B6: construct encoded by pTG19967: [N-terminus]-[coiled-coil neck domain]-[linker]-[CD40L] (ligand)
chain: AEMKTYSHRTMPSACTLVMCSSVESDVASLRQQVEALQGQVQHLQAAFSQYKKVEGGGSGGGSGGGSNPQIAAHVISEASSKTTSVLQWAEKGYYTMSNNLVTLENGKQLTVKRQGLYYIYAQVTFCSNREASSQAPFIASLCLKSPGRFERILLRAANTHSSAKPCGQQSIHLGGVFELQPGASVFVNVTDPSQVSHGTGFTSFGLLKL
B7: construct encoded by pTG19325: fusion protein SPD (M1-G257, P35247 numbering)-CD40L (H47 to L261 from P29965 numbering) (ligand)
chain: AEMKTYSHRTMPSACTLVMCSSVESGLPGRDGRDGREGPRGEKGDPGLPGAAGQAGMPGQAGPVGPKGDNGSVGEPGPKGDTGPSGPPGPPGVPGPAGREGPLGKQGNIGPQGKPGPKGEAGPKGEVGAPGMQGSAGARGLAGPKGERGVPGERGVPGNTGAAGSAGAMGPQGSPGARGPPGLKGDKGIPGDKGAKGESGLPDVASLRQQVEALQGQVQHLQAAFSQYKKVELFPNGHRRLDKIEDERNLHEDFVFMKTIQRCNTGERSLSLLNCEEIKSQFEGFVKDIMLNKEETKKENSFEMQKGDQNPQIAAHVISEASSKTTSVLQWAEKGYYTMSNNLVTLENGKQLTVKRQGLYYIYAQVTFCSNREASSQAPFIASLCLKSPGRFERILLRAANTHSSAKPCGQQSIHLGGVFELQPGASVFVNVTDPSQVSHGTGFTSFGLLKL
notes: Tested as clarified, unpurified supernatant of infected/transfected HeLa cells; concentration unknown; The construct begins at M1 of SPD, so the entry may include the native signal peptide; The form range is that of the CD40L part
B8: construct encoded by pTG20041: [N-terminus]-[collagen domain(12bis)]-[coiled-coil neck domain]-[CD40L] (ligand)
chain: AEMKTYSHRTMPSACTLVMCSSVESGPLGKQGNIGPQGKPGPKGEAGPKGEVGAPGMQGSADVASLRQQVEALQGQVQHLQAAFSQYKKVENPQIAAHVISEASSKTTSVLQWAEKGYYTMSNNLVTLENGKQLTVKRQGLYYIYAQVTFCSNREASSQAPFIASLCLKSPGRFERILLRAANTHSSAKPCGQQSIHLGGVFELQPGASVFVNVTDPSQVSHGTGFTSFGLLKL
notes: as for B2
B9: construct encoded by pTG19968: [N-terminus]-[collagen domain(12)]-[coiled-coil neck domain]-[CD40L] (ligand)
chain: AEMKTYSHRTMPSACTLVMCSSVESGQAGPVGPKGDNGSVGEPGPKGDTGPSGPPGPPGVPDVASLRQQVEALQGQVQHLQAAFSQYKKVENPQIAAHVISEASSKTTSVLQWAEKGYYTMSNNLVTLENGKQLTVKRQGLYYIYAQVTFCSNREASSQAPFIASLCLKSPGRFERILLRAANTHSSAKPCGQQSIHLGGVFELQPGASVFVNVTDPSQVSHGTGFTSFGLLKL

Biological target: T1, CD40-Fc (immobilized recombinant human CD40) (human, UniProt P25942 21-193, limits assumed)
T1 construct: Coated on the ELISA plate
T1 sequence (P25942 21-193 limits assumed): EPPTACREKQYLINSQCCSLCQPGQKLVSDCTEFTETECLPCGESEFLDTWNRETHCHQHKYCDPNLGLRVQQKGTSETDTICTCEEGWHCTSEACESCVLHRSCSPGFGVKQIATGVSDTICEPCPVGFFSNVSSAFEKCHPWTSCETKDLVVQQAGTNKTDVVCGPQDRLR
Assay: ELISA, CD40-Fc coated, HeLa supernatant, detection with non-competitive anti-CD40L

Row | Binder | binding result
1 | B1 | binds
2 | B2 | binds
3 | B3 | binds
4 | B4 | binds
5 | B5 | binds
6 | B6 | binds
7 | B7 | binds
8 | B8 | binds
9 | B9 | binds
